Legend:
Test in all cases: Kinase Profiling Assay
Format in all cases: biochemical
Details in all cases: 100 μM
[1] = target: T1, EphB1 (h) (Homo sapiens, UniProt P54762)
T1 sequence (P54762 18-984): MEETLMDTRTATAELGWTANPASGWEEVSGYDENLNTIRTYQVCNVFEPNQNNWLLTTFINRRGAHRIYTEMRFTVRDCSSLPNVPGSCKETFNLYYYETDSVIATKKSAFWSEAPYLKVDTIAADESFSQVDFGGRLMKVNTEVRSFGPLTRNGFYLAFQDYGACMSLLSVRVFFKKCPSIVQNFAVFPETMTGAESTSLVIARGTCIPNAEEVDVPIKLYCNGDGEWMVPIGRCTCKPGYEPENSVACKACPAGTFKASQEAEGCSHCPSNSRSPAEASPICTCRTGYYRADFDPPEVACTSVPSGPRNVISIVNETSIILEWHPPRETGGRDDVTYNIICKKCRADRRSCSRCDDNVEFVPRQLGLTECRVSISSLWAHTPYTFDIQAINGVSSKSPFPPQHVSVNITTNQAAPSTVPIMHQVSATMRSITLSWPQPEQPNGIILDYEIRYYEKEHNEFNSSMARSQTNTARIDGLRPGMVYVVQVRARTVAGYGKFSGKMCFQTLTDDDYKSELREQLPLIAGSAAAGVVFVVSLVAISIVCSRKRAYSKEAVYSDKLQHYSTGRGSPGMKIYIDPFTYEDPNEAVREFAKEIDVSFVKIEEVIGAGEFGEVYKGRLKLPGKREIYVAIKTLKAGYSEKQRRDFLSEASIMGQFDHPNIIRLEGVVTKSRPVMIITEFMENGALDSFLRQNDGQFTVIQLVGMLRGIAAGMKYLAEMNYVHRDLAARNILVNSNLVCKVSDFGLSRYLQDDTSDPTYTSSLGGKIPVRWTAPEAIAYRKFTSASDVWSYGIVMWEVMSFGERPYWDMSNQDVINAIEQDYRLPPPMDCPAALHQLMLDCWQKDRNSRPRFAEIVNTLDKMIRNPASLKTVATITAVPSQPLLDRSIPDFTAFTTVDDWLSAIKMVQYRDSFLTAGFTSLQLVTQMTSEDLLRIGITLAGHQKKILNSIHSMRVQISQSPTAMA
In short: (§1)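 Duplicate wells; [radiolabeled] ATP phosphate onto cationic substrate; filter capture (negatively charged membrane); scintillation count; % of 100% activity control. Selectivity screen of MK2 peptide inhibitors, 266 human kinases.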

[2] = target: T2, PKCμ (h) (Homo sapiens, UniProt Q15139)
T2 sequence (Q15139 1-912): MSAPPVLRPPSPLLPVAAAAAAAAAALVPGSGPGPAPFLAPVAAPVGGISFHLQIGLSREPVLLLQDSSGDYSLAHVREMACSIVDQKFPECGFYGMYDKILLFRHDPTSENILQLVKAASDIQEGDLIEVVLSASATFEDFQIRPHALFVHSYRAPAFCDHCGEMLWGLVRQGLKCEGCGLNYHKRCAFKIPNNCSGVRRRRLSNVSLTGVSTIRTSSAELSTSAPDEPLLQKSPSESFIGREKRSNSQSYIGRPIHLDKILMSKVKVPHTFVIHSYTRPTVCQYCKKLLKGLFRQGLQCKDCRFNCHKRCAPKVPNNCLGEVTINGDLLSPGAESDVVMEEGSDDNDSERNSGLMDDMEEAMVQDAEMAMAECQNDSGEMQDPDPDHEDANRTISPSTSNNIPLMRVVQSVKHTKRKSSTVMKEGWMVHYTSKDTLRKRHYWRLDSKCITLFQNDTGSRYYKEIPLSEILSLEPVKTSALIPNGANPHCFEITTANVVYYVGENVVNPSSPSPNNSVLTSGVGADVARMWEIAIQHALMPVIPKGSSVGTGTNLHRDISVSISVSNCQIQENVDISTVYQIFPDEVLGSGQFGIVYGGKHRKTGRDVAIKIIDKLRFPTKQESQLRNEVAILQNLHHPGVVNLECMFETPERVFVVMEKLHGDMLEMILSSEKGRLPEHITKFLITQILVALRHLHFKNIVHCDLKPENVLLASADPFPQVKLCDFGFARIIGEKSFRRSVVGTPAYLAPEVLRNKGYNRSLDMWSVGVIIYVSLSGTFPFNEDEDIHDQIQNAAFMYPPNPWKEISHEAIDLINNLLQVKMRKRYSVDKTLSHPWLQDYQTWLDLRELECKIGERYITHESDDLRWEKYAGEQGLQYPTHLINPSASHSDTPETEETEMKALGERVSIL
In short: as §1

[3] = target: T3, IKKα (h) (Homo sapiens, UniProt O15111)
T3 construct: purchased Millipore
T3 sequence (O15111 1-745): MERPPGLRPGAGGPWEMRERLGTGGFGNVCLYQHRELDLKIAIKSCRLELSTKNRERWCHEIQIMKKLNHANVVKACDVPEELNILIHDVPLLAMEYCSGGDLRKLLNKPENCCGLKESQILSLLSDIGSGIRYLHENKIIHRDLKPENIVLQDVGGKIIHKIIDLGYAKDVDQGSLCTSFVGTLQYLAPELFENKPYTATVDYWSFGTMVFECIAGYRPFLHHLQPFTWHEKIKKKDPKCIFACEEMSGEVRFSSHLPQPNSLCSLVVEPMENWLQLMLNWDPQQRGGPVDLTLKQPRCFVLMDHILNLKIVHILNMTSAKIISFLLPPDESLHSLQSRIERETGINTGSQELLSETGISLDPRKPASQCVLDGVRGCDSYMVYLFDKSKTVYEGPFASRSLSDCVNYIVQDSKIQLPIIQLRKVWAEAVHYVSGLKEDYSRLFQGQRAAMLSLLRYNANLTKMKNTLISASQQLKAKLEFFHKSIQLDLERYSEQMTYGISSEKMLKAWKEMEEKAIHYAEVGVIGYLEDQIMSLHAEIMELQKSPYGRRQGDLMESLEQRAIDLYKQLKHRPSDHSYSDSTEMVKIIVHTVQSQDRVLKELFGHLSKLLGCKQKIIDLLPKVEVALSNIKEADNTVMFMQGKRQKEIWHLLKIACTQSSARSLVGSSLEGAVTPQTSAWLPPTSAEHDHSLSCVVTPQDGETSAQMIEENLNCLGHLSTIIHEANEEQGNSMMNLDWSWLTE
In short: as §1

Sequence | % activity [1] | % activity [2] | % activity [3]
FAKLAARLYRKALARQLGVAA [MMI-0300] | 44% | 22% | 93%
HRRIKAWLKKIKALARQLGVAA (Mammalian) [MMI-0500] | 37% | 10% | 50%
KAFAKLAARLYRKALARQLGVAA [MMI-0400] | 58% | 14% | 87%
YARAAARQARAKALNRQLGVA (Mammalian) [MMI-0200] | 95% | 73% | 

From US10500249B2, “Compositions and methods for preventing or treating diseases, conditions, or processes characterized by aberrant fibroblast proliferation and extracellular matrix deposition” (MOERAE MATRIX, INC., priority 2014, dated 2019)
